B1: CPN1 (parent)
chain: RGVRRTASTPTPDDKLFQKLAKVY
B2: HESX1 (parent)
chain: QKKDCVPLMKPHRPWADTCSSSGK

Variants of: B1
Assay: protein stability index of a GFP-peptide fusion (GPS, HEK-293T) (PSI 1-6); higher = more stable
Conditions: c terminus: a fixed tail appended
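Also: lentivirally expressed fusions sorted by FACS into six bins by GFP to DsRed ratio, PSI derived from sequencing read proportions per bin multiplied by bin number.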

Protein stability index of substitutions, site by site:
F17: N 2.88; P 2.84; Q 3.21; R 3.43; S 2.94; T 3.67; V 2.58; W 2.26; Y 2.28
Q18: A 1.93; C 2.6; D 2.32; E 2.19; F 1.43; G 2.29; H 2.02; I 1.75; K 1.84; L 1.69; M 1.47; N 1.8; P 2.7; R 1.77; S 2.09; T 2.42; V 1.82; W 1.37; Y 1.78
K19: A 1.62; D 2.67; E 2.54; F 2.53; G 2.21; H 2.12; L 2.36; N 2.16; P 2.93; Q 1.96; R 2.49; S 1.74; T 1.98; V 2.1; W 2.21; Y 1.34
L20: A 3.4; C 2.56; D 4.06; E 3.85; F 1.82; G 3.86; H 3.22; I 1.92; K 3.68; M 2.23; N 3.48; P 3.58; Q 3.17; R 3.3; S 3.7; T 3.52; V 3.48; W 2.58; Y 2.4
A21: C 2.22; D 2.78; E 3.11; F 1.64; G 3.23; H 2.29; I 1.85; K 1.76; L 1.58; M 1.73; N 2.66; P 2.62; Q 2.48; R 1.83; S 2.15; T 1.78; V 1.6; W 2.22; Y 2.27
K22: A 2.19; C 1.8; D 1.95; E 1.87; F 1.96; G 2.82; H 1.98; I 1.45; L 2.73; M 2.04; N 2.4; P 2.37; Q 1.7; R 2.07; S 1.93; T 1.96; V 2.14; W 2.19; Y 1.97
V23: A 2.45; C 2.58; D 3.02; E 3.84; F 1.64; G 3.09; H 2.78; I 2.27; K 2.96; L 2.18; M 1.9; N 3.73; P 3.51; Q 3.44; R 3.84; S 2.7; T 2.4; W 1.92; Y 1.9
Y24: A 2.51; C 2.22; D 3.48; E 3.49; F 1.95; G 3; H 3.1; I 2.6; K 3.95; L 2.49; M 1.66; N 3.33; P 2.72; Q 2.92; R 2.29; S 2.72; T 3.64; V 2.7; W 1.98

Variants of: B2
Assay: as above
Conditions: c terminus: a fixed tail appended

Protein stability index: each site, then its substitutions
P14: V 2.23; H 3.95; C 2.36; D 3.21; K 2.81; L 3.06; A 2.52; F 3.1; N 2.72
R13: F 3.75; Y 3.64; C 3.26; Q 4.18; M 3.06; D 4.11; V 3.11
D17: S 3.74; A 3.48; C 2.81; Q 3.89; V 2.91; M 3.36; N 3.22
H12: D 4.49; L 3.91; F 3.25; N 3.77; A 4; I 3.07; G 3.98; M 3.18
K10: V 3.94; Y 3.45; W 2.52; Q 4.19; D 4.83
A16: R 3.45; T 3.76; M 4.02; E 3.9; N 4.2; C 3.72
L8: P 3.49; S 3.86; Q 4.1; E 3.58; H 2.31; V 3.28; K 3.73; F 3.14
D4: Y 2.72; L 2.38; T 2.49; H 3.08; P 2.86; G 3.05; N 3.24; I 3.25; Q 3.54; V 2.17
T18: W 2.94; S 3.28; R 2.69; D 3.96; P 4.02; Y 2.25; V 1.9; L 2.24; I 1.57; Q 3.36; K 4.01
C5: T 3.2; Q 2.49; A 3.08; D 3.57; V 3.78; S 3.4; H 3.83; M 3.19; E 4.15; I 2.51; R 4.16
P7: Y 2.78; Q 3.34; A 2.79; L 2.68; C 2.74; R 2.46; T 2.7; K 2.8; M 3.17; W 1.76
S20: W 2.74; A 3.71; Q 3.05; F 2.3; M 3.18; D 3.32; Y 2.31; N 3.33
G23: D 2.46; P 3.81; R 3.5; M 3.08; N 3.13; A 3.69; Y 3.15; S 3.32; L 3.46; C 2.45
K24: N 2.97; Q 3.57; S 2.23; E 2.28; A 3.7; G 3.62; Y 1.98
K2: L 3.3; I 3.17; D 4.3; Y 2.51; T 3.67; G 3.06; V 3.12; P 3.89; F 3.46
C19: R 4.08; D 3.9; M 4.19; Y 3.25; I 2.45; V 2.17; L 3.13
W15: N 4.79; S 4.8; P 4.35; L 4.66; I 4.26; Y 4.39; H 4.64; D 4.81
P11: K 3.42; G 3.87; A 3.29; T 4.68; S 3.64; L 2.85; I 3.42; N 3.48; Q 2.74; M 3.83; D 3.96; R 3.46
M9: E 4.04; N 3.58; C 3.76; W 3; A 3.69; K 3.08; P 3.51; S 2.93
V6: C 3.1; S 3.4; G 3.46; T 3.92; L 2.92
Q1: K 3.06; L 2.01; N 3.22; T 3.4; F 3.17; W 2.69; H 3.86; C 2.94
K3: Q 3.06; V 3.47; L 3.42; N 3.67
S21: Y 2.32; N 3.4; M 2.58; K 3.68; R 2.56; A 3.61; G 3.92; V 3.15; T 3.38
S22: T 3.08; E 3.13; R 3.3; V 2.78; G 2.23; C 2.94; I 3.13; N 2.89

From the supplement of paper PMC10567573
